From US20240390512A1 (Daiichi Sankyo, published 2024) come the findings set out here.

For test [1], the target named is T1, human CDH6 (cadherin-6), full-length, on cells (human, UniProt P55285 54-790).
T1 construct: also called hCDH6; full-length hCDH6
T1 sequence: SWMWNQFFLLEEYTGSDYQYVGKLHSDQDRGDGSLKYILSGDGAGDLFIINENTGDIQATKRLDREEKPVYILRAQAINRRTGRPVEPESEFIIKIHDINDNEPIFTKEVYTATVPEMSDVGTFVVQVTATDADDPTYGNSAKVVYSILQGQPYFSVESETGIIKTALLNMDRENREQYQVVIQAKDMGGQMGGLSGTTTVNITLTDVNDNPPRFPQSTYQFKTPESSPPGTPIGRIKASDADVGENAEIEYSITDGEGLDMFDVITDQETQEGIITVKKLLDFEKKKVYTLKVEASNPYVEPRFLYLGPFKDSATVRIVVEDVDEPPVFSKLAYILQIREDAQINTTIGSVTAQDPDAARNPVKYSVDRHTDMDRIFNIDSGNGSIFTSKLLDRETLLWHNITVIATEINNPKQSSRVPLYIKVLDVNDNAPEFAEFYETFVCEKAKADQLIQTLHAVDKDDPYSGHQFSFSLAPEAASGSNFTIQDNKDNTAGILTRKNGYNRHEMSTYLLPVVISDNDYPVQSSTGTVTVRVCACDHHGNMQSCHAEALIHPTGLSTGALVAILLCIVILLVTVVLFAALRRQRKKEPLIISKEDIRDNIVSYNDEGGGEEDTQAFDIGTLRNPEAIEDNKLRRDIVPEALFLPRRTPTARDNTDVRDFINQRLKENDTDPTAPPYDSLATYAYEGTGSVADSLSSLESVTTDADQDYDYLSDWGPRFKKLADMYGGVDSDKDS
The test is described as follows: flow cytometry; 293α cells transfected with pcDNA3.1-hCDH6; PE anti-human IgG Fcγ F(ab')2.

Test [2] addresses T2, cynomolgus monkey CDH6, on cells (cynomolgus monkey, UniProt P55285 54-790 (human entry)).
T2 construct: Expressed from pcDNA3.1-cynoCDH6; also called cynoCDH6
T2 sequence: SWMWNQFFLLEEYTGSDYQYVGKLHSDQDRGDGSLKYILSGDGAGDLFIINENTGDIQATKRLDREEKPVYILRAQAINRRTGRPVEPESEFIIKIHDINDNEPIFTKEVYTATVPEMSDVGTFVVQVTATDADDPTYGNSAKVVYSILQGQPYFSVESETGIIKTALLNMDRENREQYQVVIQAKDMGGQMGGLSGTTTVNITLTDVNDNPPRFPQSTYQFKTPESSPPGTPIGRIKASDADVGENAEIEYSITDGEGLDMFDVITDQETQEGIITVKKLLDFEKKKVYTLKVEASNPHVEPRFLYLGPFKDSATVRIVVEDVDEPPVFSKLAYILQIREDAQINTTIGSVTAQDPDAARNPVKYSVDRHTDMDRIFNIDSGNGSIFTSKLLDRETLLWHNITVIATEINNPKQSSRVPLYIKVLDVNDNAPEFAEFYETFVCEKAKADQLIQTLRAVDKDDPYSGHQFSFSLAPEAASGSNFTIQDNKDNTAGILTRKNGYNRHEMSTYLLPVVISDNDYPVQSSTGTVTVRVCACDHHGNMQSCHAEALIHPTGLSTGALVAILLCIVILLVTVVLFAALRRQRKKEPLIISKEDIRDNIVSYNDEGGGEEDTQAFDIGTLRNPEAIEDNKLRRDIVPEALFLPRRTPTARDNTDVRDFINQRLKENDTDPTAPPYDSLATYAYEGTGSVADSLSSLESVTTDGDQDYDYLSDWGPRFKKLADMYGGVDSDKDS
The test is described as follows: flow cytometry; 293α cells transfected with pcDNA3.1-cynoCDH6; PE anti-human IgG Fcγ F(ab')2.

The next test deals with T3, mouse CDH6, on cells (mouse, UniProt P97326 54-790).
T3 construct: also called mCDH6; NP_031692
T3 sequence: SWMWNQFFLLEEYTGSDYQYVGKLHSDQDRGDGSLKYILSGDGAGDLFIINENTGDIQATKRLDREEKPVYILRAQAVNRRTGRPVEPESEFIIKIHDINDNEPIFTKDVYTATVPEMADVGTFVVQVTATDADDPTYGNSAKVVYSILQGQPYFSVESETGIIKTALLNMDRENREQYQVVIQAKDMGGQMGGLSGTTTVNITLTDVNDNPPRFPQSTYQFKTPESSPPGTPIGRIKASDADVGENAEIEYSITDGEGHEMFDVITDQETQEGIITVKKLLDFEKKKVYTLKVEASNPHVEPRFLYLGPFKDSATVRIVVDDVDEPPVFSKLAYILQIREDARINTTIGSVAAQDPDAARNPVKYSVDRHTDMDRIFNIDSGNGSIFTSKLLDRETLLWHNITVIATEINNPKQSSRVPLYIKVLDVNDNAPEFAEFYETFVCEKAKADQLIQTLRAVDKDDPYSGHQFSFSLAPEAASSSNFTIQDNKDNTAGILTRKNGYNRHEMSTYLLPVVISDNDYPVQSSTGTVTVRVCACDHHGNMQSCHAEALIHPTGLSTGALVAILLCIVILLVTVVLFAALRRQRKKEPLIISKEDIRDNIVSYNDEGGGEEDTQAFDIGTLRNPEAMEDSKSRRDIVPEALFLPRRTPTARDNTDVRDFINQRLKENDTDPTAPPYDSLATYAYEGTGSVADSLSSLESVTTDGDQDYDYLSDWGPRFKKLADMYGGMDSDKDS
The experiment in a line: flow cytometry; 293α cells transfected with mCDH6; PE anti-human IgG Fc(gamma) goat F(ab').

For another test, the target named is T4, rat CDH6, on cells (rat, UniProt P55280 54-789).
T4 construct: also called rCDH6; NP_037059
T4 sequence: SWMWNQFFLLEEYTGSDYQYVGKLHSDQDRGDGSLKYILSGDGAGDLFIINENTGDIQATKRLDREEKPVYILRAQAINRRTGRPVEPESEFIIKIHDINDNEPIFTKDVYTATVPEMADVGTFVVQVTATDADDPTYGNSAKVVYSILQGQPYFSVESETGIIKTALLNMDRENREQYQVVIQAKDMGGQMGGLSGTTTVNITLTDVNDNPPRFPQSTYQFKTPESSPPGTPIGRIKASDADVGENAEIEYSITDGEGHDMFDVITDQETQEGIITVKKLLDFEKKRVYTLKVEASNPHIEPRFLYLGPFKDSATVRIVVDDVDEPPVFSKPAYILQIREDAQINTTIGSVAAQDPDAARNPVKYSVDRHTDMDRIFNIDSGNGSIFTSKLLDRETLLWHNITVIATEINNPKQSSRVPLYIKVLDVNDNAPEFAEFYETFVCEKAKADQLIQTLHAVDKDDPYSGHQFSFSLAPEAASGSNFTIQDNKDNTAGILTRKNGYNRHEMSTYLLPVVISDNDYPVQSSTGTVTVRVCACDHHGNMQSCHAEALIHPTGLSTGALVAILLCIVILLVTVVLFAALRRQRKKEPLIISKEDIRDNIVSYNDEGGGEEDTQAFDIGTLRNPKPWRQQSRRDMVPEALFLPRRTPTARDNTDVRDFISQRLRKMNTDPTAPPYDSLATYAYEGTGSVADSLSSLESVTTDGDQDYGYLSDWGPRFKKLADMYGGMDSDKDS
The test is described as follows: flow cytometry; 293α cells transfected with rCDH6; PE anti-human IgG Fc(gamma) goat F(ab').

The target of test [3] is T5, Recombinant Human CDH6 Fc His chimera (R&D Systems, Inc.) (human, UniProt P55285 54-615).
T5 construct: Bought reagent; also called the antigen; human CDH6 antigen; Fc part of the bought chimera not given; His tag of the bought chimera
T5 sequence: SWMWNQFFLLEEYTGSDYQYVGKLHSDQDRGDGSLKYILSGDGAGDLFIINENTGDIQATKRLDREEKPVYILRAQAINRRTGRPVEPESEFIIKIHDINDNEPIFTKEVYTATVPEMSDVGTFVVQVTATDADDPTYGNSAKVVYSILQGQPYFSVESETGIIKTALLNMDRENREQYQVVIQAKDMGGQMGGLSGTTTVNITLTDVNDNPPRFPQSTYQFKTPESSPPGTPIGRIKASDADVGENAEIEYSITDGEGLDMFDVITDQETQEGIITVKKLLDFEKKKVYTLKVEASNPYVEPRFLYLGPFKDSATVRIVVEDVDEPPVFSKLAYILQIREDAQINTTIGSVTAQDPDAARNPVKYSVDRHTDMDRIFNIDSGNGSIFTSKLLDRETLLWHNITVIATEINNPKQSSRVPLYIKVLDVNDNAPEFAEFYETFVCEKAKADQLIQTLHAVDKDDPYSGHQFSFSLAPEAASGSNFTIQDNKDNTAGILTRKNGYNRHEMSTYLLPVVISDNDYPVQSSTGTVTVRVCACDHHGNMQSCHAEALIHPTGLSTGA
The test is described as follows: SPR (Biacore T200); antigen captured by immobilized anti-His antibody, antibody as analyte 0.391 to 100 nM; steady state affinity model.

In test [4] the target is T6, EC3 deletion mutant of human CDH6, on cells (human, UniProt P55285 54-790).
T6 construct: in p3×FLAG-CMV-9; also called EC3-deleted hCDH6
T6 sequence: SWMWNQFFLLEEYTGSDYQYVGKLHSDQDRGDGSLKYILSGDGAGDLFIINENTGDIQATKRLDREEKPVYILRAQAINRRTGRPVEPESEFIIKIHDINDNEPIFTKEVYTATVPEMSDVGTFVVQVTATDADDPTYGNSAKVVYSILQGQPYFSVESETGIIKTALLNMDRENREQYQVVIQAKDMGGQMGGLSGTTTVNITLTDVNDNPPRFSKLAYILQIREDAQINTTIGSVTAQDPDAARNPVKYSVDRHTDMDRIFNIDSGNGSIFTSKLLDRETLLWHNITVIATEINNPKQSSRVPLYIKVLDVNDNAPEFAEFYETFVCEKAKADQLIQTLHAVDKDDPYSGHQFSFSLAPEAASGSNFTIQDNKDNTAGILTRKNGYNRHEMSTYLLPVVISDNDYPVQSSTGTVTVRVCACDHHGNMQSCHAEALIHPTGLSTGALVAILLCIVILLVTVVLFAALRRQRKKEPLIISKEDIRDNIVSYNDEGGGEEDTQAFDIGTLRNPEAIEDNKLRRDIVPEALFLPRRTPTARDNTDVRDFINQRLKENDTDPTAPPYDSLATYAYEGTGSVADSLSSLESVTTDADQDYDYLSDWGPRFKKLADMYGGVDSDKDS
The experiment in a line: flow cytometry; 293α cells transfected with EC3-deleted hCDH6 (open line) against untransfected 293α cells (shaded); APC anti-human IgG goat F(ab')2; antibody concentration not given.

B1: human chimeric anti-CDH6 antibody chG019 (antibody, human IgG1)
heavy: not shown
light: DIQMTQSPSLLSASVGDRVTLNCKASQNIYKNLAWYQQKLGEGPKLLIYDANTLQTGIPSRFSGSGSGSDFTLTISSLQPEDVATYFCQQYYSGWAFGGVTNLELKRAVAAPSVFIFPPSDEQLKSGTASVVCLLNNFYPREAKVQWKVDNALQSGNSQESVTEQDSKDSTYSLSSTLTLSKADYEKHKVYACEVTHQGLSSPVTKSFNRGEC
notes: human IgG1 / kappa constant regions; also called chimeric G019 antibody; chG019 antibody
Regarding B1, the “EC50 (read off the curve)” value in test [1] and in test [2] was approximately 0.01 µg/mL each time.

B2: humanized anti-CDH6 antibody H02L02 (antibody, human IgG1, kappa, V domains shown)
VH: EVQLVQSGAEVKKPGASVKVSCKASGYTFTRNFMHWVRQAPGQGLEWMGWIYPGDGETEYNQKFQGRVTITADRSTSTAYMELSSLRSEDTAVYFCARGVYGGFAGGYFDFWGQGTLVTVSS
VL: DIQMTQSPSSLSASVGDRVTITCKASQNIYKNLAWYQQKPGKAPKLLIYDANTLQTGVPSRFSGSGSGSDFTLTISSLQPEDFATYFCQQYYSGWAFGQGTKVEIKR
notes: hH02 heavy chain and hL02 light chain, human IgG1 / kappa; also called H02L02 antibody
For the molecule B2, the binding result in the test with mouse CDH6, on cells is “no binding (tested: about 4, unit not printed on the axis)”; with rat CDH6, on cells, “no binding (tested: about 4, unit not printed on the axis)”; in test [4] it was “no binding”. In addition, in test [3], the Kd worked out at 1.1 nM.

B3: humanized anti-CDH6 antibody H01L02 (antibody, human IgG1, kappa, V domains shown)
VH: EVQLVQSGAEVKKPGASVKVSCKASGYTFTRNFMHWVRQAPGQGLEWMGWIYPGDGETEYAQKFQGRVTITADTSTSTAYMELSSLRSEDTAVYYCARGVYGGFAGGYFDFWGQGTLVTVSS
VL: DIQMTQSPSSLSASVGDRVTITCKASQNIYKNLAWYQQKPGKAPKLLIYDANTLQTGVPSRFSGSGSGSDFTLTISSLQPEDFATYFCQQYYSGWAFGQGTKVEIKR
notes: hH01 heavy chain and hL02 light chain, human IgG1 / kappa; also called H01L02 antibody; humanized hG019 (H01L02)
On to B3, for which the binding result is “no binding (tested: about 4, unit not printed on the axis)” with mouse CDH6, on cells; “no binding (tested: about 4, unit not printed on the axis)” with rat CDH6, on cells; “no binding” in test [4]. In addition, in test [3], the Kd was 1.5 nM.

B4: humanized anti-CDH6 antibody H02L03 (antibody, human IgG1, kappa, V domains shown)
VH: EVQLVQSGAEVKKPGASVKVSCKASGYTFTRNFMHWVRQAPGQGLEWMGWIYPGDGETEYNQKFQGRVTITADRSTSTAYMELSSLRSEDTAVYFCARGVYGGFAGGYFDFWGQGTLVTVSS
VL: DIQMTQSPSSLSASVGDRVTITCKASQNIYKNLAWYQQKLGEGPKLLIYDANTLQTGVPSRFSGSGSGTDFTLTISSLQPEDFATYYCQQYYSGWAFGQGTKVEIKR
notes: hH02 heavy chain and hL03 light chain, human IgG1 / kappa; also called H02L03 antibody
In the case of B4, the binding result with mouse CDH6, on cells is “no binding (tested: about 4, unit not printed on the axis)”; with rat CDH6, on cells, “no binding (tested: about 4, unit not printed on the axis)”; in test [4] it was “no binding”. Also, the Kd in test [3] was determined as 1.4 nM.
